Data reported in article PMC3589417.
One block for each substance: values may come before it.

Target: 14-3-3ε (UniProt P62258)
Assay: anti-FLAG co-IP of HA-TAK1, immunoblot
Conditions: reference: wild type

Sequence of UniProt P62258 (P62258 whole entry, looked up): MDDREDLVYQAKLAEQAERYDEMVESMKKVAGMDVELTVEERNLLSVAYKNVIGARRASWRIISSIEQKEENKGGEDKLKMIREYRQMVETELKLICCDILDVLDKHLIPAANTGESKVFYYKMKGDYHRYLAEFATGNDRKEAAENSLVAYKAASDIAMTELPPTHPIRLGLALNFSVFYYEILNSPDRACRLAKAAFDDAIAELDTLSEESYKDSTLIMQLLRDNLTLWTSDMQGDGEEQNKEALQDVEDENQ

- binding against the reference (sites S192): weaker
Substance: TAK1 (MAP3K7) (from UniProt O43318-2) S192A

- binding against the reference (sites T184): weaker
Substance: TAK1 (MAP3K7) (from UniProt O43318-2) T184A

- binding against the reference (sites T187): weaker
Substance: TAK1 (MAP3K7) (from UniProt O43318-2) T187A
